B1: CPEB3 Ribozyme (parent)
chain: GGGGGCCACAGCAGAAGCGUUCACGUCGCGGCCCCUGUCAGAUUCUGGUGAAUCUGCGAAUUCUGCUGU

Variants of: B1
Experiment: self-cleavage, relative activity (ratio to wild type); higher = more cleavage; co-transcriptional

Variant	self-cleavage
GGGGGCCACAGCACAAGCGUUCACGUCGCGGCCCCUGUCAGAUUCUGGUGAAUCUGCGAAUUCUGCUUU [G14C G68U]	0.64
GGGGGCCACAGCACAAGCGUUCACGUCGCGGCCCCUGUCAUAUUCUGGUGAAUCUGCGAAUUCUGCUGU [G14C G41U]	0.231
GGGGGCCACAGCACAAGCGUUCACGUCGCGGCCCCUGUCACAUUCUGGUGAAUCUGCGAAUUCUGCUGU [G14C G41C]	0.192
GGGGGCCACAGCACAAGCGUUCACGUCGCGGCCCCUGUCAAAUUCUGGUGAAUCUGCGAAUUCUGCUGU [G14C G41A]	0.16
GGGGGCCACAGCACAAGCGUCCACGUCGCGGCCCCUGUCAGAUUCUGGUGAAUCUGCGAAUUCUGCUGU [G14C U21C]	0.286
GGGGGCCACAGCACAAGCGUGCACGUCGCGGCCCCUGUCAGAUUCUGGUGAAUCUGCGAAUUCUGCUGU [G14C U21G]	0.11
GGGGGCCACAGCACAAGCGUACACGUCGCGGCCCCUGUCAGAUUCUGGUGAAUCUGCGAAUUCUGCUGU [G14C U21A]	0.477
GGGGGCCACAGCACAAGCGUUCACGUCGCGGCCCCUGUCAGAUUCUGGUGAAUGUGCGAAUUCUGCUGU [G14C C54G]	0.251
GGGGGCCACAGCACAAGCGUUCACGUCGCGGCCCCUGUCAGAUUCUGGUGAAUUUGCGAAUUCUGCUGU [G14C C54U]	0.544
GGGGGCCACAGCACAAGCGUUCACGUCGCGGCCCCUGUCAGAUUCUGGUGAAUCUUCGAAUUCUGCUGU [G14C G56U]	0.236
GGGGGCCACAGCACAAGCGUUCACGUCGCGGCCCCUGUCAGAUUCUGGUGAAUCUCCGAAUUCUGCUGU [G14C G56C]	0.24
GGGGGCCACAGCACAAACGUUCACGUCGCGGCCCCUGUCAGAUUCUGGUGAAUCUGCGAAUUCUGCUGU [G14C G17A]	0.164
GGGGGCCACAGCACAACCGUUCACGUCGCGGCCCCUGUCAGAUUCUGGUGAAUCUGCGAAUUCUGCUGU [G14C G17C]	0.119
GGGGGCCACAGCACAAGCGUUCACGUCGCGGCCCCUGUCAGAUUAUGGUGAAUCUGCGAAUUCUGCUGU [G14C C45A]	0.406
GGGGGCCACAGCACAAGCGUUCACGUCGCGGCCCCUGUCAGAUUGUGGUGAAUCUGCGAAUUCUGCUGU [G14C C45G]	0.468
GGGGGCCACAGCACAAGCGUUCACGUCGCGGCCCCUGUCAGAUUUUGGUGAAUCUGCGAAUUCUGCUGU [G14C C45U]	0.562
GGGGGCCACAGCACAAGCGUUCACGUCGCGGCCCCUGUCAGAUUCUGGUCAAUCUGCGAAUUCUGCUGU [G14C G50C]	0.405
GGGGGCCACAGCACAAGCGUUCACGUCGCGGCCCCUGUCAGAUUCUGGUUAAUCUGCGAAUUCUGCUGU [G14C G50U]	0.618
GGGGGCCACAGCACAAGCGUUCACGUCGCGGCCCCUGUCAGAUUCUGGUAAAUCUGCGAAUUCUGCUGU [G14C G50A]	0.613
GGGGGCCACAGCACAAGCGUUCACGUCGCGGCCCCGGUCAGAUUCUGGUGAAUCUGCGAAUUCUGCUGU [G14C U36G]	0.19

Variant	self-cleavage
GGGGGCCACAGCACAAGCGUUCACGUCGCGGCCCCCGUCAGAUUCUGGUGAAUCUGCGAAUUCUGCUGU [G14C U36C]	0.37
GGGGGCCACAGCACAAGCGUUCACGUCGCGGCCCCAGUCAGAUUCUGGUGAAUCUGCGAAUUCUGCUGU [G14C U36A]	0.109
GGGGGCCACAGCACAAGCGUUCACGUCGCGGCCCCUGUCAGAUUCUAGUGAAUCUGCGAAUUCUGCUGU [G14C G47A]	0.729
GGGGGCCACAGCACAAGCGUUCACGUCGCGGCCCCUGUCAGAUUCUUGUGAAUCUGCGAAUUCUGCUGU [G14C G47U]	0.725
GGGGGCCACAGCACAAGCAUUCACGUCGCGGCCCCUGUCAGAUUCUGGUGAAUCUGCGAAUUCUGCUGU [G14C G19A]	0.136
GGGGGCCACAGCACAAGCGUUCACGUCGCGGCCCCUGUCAGAUUCCGGUGAAUCUGCGAAUUCUGCUGU [G14C U46C]	0.48
GGGGGCCACAGCACAAGCGUUCACGUCGCGGCCCCUGUCAGAUUCGGGUGAAUCUGCGAAUUCUGCUGU [G14C U46G]	0.599
GGGGGCCACAGCACAAGCGUUCACGUCGCGGCCCCUGUCAGAUUCAGGUGAAUCUGCGAAUUCUGCUGU [G14C U46A]	0.651
GGGGGCCACAGCACAAGCGUUCACGUCGCGGCCCCUGUCAGAUGCUGGUGAAUCUGCGAAUUCUGCUGU [G14C U44G]	0.39
GGGGGCCACAGCACAAGCGUUCACGUCGCGGCCCCUGUCAGAUACUGGUGAAUCUGCGAAUUCUGCUGU [G14C U44A]	0.392
GGGGGCCACAGCACAAGCGUUCACGUCGCGGCCCCUGGCAGAUUCUGGUGAAUCUGCGAAUUCUGCUGU [G14C U38G]	0.157
GGGGGCCACAGCACAAGCGUUCACGUCGCGGCCCCUUUCAGAUUCUGGUGAAUCUGCGAAUUCUGCUGU [G14C G37U]	0.183
GGGGGCCACAGCACAAGCGUUCACGUCGCGGCCCCUAUCAGAUUCUGGUGAAUCUGCGAAUUCUGCUGU [G14C G37A]	0.151
GGGGGCCACAGCACAAGCGUUCACGUCGCGGCCCCUCUCAGAUUCUGGUGAAUCUGCGAAUUCUGCUGU [G14C G37C]	0.127
GGGGGCCACAGCACAAGCGUUCACCUCGCGGCCCCUGUCAGAUUCUGGUGAAUCUGCGAAUUCUGCUGU [G14C G25C]	0.167
GGGGGCCACAGCACAAGCGUUCACUUCGCGGCCCCUGUCAGAUUCUGGUGAAUCUGCGAAUUCUGCUGU [G14C G25U]	0.0786
GGGGGCCACAGCACAAGCGUUCACAUCGCGGCCCCUGUCAGAUUCUGGUGAAUCUGCGAAUUCUGCUGU [G14C G25A]	0.142
GGGGGCCACAGCACAAGCGUUCACGUCGCGGCCCCUGUCAGAUUCUGGUGAAUCUGCGAAUUCUCCUGU [G14C G65C]	0.231
GGGGGCCACAGCACAAGCGUUCACGUCGCGGCCCCUGUCAGAUUCUGGUGAAUCUGCGAAUUCUACUGU [G14C G65A]	0.291
